Measurements reported in PMC13623949.

How the values were obtained:
[1] = target: S. cerevisiae wild-type INO80 complex, labeled with LD555 (S. cerevisiae) (UniProt P53115); assay: single-molecule DNA curtains (TIRF; fluorescence intensity and photobleaching steps); LD555-labeled INO80 on double-tethered lambda-DNA; 20 mM HEPES pH 8.0, 1 mg/mL BSA, 4 mM Mg(OAc)2, 1 mM ATP, 1 mM DTT, 120 mM KGlu; 125 to 250 pM INO80 injected
[2] = target: H2A.Z-containing nucleosome (H. sapiens histone octamer, H2B labeled with ATTO643) assembled on lambda-DNA (H. sapiens) (UniProt P0C0S5); assay: single-molecule DNA curtains (TIRF; two-colour co-localization); ATTO643-labeled H2A.Z nucleosomes on sparsely chromatinized double-tethered lambda-DNA, washed with 350 mM NaCl; LD555-INO80 flushed in, flow stopped; DNA curtains buffer with 1 mM ATP

| percent of DNA-bound complexes that are dimers [1] [%] | stoichiometry N [1] | co-localization time, second population (short associations) [2] [s] | co-localization time, third population (extremely long-lived co-localizations) [2] [s] | median interaction (co-localization) time [2] [s] | Substance |
| --- | --- | --- | --- | --- | --- |
| 11 | 2 | – | – | – | S. cerevisiae wild-type INO80 complex, labeled with LD555 (from UniProt P53115 1-1489; Q03940 1-463; Q12464 1-471; P53946 1-755; P32617 1-166; P60010 1-375; P80428 1-489; Q12386 1-881; P35189 1-244; P40154 1-320; Q08561 1-116; P43579 1-692; Q12345 1-250; P40060 1-125; Q03435 1-203) (complex; LD555 on the ybbR-tag (Sfp with LD555-CoA); LD555 on the ybbR-tag (Sfp with LD555-CoA)) |
| – | – | 16.6 | 1200 | 15.3 | S. cerevisiae wild-type INO80 complex, labeled with LD555 (from UniProt P53115 1-1489; Q03940 1-463; Q12464 1-471; P53946 1-755; P32617 1-166; P60010 1-375; P80428 1-489; Q12386 1-881; P35189 1-244; P40154 1-320; Q08561 1-116; P43579 1-692; Q12345 1-250; P40060 1-125; Q03435 1-203) |
